Data set [1] addresses Grb2 SH2 (UniProt P62993). The data set is described as follows: SH2 binding enrichment of the phosphorylated peptide, bacterial display (enrichment ratio); higher = better substrate or ligand; peptides without Tyr show the background.
For data set [2], the target named is SHP2-C SH2. Described as above.
For data set [3], the target named is c-Src SH2. The data set is described as above.
The target in data set [4] is Fes (UniProt P07332). Description: phosphorylation enrichment, bacterial display (enrichment ratio); higher = better substrate or ligand; peptides without Tyr show the background.
In data set [5] the target is Jak2 (UniProt O60674). Described as above.
Data set [6] deals with Fyn (UniProt P06241). Described as above.
Data set [7] deals with Fer (mouse). The data set is described as above.
Data set [8] deals with FGFR3 (UniProt P22607). Described as above.
Data set [9] has as its target FGFR1 (UniProt P11362). Described as above.
The target in data set [10] is Hck (UniProt P08631). The description is as above.
Data set [11] deals with MERTK (UniProt Q12866). The description is as above.
Data set [12] relates to c-Src. The data set is described as above.
Data set [13] concerns the target EPHB1 (UniProt P54762). Described as above.
Data set [14] has as its system AncSZ. Described as above.
The target in data set [15] is EPHB2 (UniProt P29323). Described as above.
Data set [16] concerns c-Abl (mouse). The data set is described as above.
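For SH2 binding enrichment of the phosphorylated peptide, bacterial display in this document: peptide library displayed on the E. coli surface as eCPX fusions, selected cells deep-sequenced, score is each peptide's frequency after selection divided by its frequency in the input.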
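For phosphorylation enrichment, bacterial display in this document: 11-residue human phosphosite peptides and single-mutation variants displayed on the E. coli surface, counted by deep sequencing, each peptide's frequency after selection divided by its frequency in the unselected input library; frequency after pTyr selection over input frequency; kinase dosed for 20-30% of maximal phosphorylation in three min.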

Sequence of FGFR3 (P22607 whole entry, looked up): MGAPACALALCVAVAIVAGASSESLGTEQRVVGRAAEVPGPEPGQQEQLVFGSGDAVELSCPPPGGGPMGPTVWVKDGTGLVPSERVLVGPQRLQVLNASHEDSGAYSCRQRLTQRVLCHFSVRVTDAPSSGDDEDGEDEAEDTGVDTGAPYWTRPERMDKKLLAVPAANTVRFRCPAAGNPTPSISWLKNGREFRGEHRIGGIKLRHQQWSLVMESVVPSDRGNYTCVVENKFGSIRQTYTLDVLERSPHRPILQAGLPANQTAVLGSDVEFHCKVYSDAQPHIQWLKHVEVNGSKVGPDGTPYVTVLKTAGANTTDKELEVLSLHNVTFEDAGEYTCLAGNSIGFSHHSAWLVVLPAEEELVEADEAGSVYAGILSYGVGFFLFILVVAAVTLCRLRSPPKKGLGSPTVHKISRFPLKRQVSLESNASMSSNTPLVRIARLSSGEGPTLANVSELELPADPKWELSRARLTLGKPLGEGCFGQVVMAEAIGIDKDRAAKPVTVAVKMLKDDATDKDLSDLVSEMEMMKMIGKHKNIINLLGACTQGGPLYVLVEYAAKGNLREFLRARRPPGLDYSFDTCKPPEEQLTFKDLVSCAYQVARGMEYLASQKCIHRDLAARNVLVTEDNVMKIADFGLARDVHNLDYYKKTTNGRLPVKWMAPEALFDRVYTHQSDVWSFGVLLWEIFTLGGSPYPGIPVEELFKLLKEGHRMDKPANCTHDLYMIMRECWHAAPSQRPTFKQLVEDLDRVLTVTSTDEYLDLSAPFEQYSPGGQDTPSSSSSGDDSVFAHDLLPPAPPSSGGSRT
Sequence of Hck (P08631 whole entry, looked up): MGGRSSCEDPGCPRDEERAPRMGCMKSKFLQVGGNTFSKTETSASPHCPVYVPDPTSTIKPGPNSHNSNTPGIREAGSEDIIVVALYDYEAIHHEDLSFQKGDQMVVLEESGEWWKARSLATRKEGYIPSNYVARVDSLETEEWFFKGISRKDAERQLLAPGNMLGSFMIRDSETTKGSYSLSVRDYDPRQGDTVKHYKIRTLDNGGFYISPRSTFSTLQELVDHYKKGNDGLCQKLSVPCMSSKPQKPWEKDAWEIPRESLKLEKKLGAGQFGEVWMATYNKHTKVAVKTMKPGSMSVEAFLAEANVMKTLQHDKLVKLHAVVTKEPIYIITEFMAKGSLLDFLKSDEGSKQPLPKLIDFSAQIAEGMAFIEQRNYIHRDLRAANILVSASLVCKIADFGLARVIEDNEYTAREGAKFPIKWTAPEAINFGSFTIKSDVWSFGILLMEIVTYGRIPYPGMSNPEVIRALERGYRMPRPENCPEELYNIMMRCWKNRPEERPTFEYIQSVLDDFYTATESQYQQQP
Sequence of FGFR1 (P11362 whole entry, looked up): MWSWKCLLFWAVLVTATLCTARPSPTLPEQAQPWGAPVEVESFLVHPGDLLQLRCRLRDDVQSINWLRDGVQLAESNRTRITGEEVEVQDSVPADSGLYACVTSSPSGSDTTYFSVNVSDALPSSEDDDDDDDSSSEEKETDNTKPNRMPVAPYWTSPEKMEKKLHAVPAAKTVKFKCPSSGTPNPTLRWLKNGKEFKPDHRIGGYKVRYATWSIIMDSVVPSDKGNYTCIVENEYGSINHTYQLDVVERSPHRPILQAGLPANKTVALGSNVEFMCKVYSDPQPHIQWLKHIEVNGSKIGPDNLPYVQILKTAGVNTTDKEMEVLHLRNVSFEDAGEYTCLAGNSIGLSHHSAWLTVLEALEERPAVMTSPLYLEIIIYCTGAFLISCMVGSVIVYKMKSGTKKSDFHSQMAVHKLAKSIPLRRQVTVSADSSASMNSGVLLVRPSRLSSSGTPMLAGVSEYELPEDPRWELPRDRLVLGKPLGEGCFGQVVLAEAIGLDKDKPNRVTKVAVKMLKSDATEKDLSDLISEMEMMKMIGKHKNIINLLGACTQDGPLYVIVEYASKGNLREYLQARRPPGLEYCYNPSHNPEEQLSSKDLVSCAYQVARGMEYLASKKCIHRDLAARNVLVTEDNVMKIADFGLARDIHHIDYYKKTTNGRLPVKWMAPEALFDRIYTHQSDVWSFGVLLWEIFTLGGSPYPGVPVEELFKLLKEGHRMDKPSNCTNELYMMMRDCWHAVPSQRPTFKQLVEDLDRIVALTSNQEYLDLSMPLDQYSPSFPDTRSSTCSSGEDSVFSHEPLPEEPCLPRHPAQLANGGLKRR
Sequence of Grb2 SH2 (P62993 whole entry, looked up): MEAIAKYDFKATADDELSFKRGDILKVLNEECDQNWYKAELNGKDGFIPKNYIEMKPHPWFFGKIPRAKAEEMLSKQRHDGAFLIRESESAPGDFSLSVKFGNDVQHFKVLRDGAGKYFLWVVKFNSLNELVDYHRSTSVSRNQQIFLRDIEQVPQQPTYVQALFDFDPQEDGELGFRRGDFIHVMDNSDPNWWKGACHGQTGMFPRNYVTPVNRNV
Sequence of Fes (P07332 whole entry, looked up): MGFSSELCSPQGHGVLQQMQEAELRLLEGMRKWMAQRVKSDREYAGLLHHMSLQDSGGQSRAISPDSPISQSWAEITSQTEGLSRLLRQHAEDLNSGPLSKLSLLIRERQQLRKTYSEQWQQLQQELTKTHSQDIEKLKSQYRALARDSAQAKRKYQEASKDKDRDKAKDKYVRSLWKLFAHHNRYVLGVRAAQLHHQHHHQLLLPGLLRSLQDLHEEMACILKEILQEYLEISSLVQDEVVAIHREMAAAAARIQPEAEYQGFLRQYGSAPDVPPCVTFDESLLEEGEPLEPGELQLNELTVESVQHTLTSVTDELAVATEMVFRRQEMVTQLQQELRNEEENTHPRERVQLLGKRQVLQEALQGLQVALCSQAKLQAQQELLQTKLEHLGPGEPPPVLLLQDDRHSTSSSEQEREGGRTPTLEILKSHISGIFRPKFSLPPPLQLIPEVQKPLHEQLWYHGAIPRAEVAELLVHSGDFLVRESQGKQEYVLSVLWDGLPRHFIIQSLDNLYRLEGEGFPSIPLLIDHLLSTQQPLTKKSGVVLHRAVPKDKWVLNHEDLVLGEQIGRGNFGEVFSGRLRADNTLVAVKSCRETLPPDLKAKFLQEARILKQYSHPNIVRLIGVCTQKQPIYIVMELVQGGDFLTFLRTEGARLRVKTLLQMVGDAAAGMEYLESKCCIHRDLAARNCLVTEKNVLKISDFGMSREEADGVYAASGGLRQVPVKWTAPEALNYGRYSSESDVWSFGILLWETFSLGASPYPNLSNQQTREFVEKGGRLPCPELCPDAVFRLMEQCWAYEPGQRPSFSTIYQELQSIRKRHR
Sequence of Fyn (P06241 whole entry, looked up): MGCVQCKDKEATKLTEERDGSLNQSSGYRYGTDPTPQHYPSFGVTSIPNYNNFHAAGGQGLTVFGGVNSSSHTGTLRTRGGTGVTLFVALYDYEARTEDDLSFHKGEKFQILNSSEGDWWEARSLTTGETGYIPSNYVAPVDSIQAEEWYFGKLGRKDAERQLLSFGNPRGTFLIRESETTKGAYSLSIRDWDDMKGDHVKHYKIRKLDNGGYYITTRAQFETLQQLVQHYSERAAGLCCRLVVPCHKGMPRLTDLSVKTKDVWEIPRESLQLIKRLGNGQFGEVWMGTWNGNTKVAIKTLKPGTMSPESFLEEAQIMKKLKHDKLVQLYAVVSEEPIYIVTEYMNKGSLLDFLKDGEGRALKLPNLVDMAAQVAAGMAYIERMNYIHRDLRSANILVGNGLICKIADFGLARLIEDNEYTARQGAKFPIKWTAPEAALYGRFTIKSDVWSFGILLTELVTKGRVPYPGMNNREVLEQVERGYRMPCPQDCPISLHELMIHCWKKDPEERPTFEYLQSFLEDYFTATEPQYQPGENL
Sequence of Jak2 (O60674 whole entry, looked up): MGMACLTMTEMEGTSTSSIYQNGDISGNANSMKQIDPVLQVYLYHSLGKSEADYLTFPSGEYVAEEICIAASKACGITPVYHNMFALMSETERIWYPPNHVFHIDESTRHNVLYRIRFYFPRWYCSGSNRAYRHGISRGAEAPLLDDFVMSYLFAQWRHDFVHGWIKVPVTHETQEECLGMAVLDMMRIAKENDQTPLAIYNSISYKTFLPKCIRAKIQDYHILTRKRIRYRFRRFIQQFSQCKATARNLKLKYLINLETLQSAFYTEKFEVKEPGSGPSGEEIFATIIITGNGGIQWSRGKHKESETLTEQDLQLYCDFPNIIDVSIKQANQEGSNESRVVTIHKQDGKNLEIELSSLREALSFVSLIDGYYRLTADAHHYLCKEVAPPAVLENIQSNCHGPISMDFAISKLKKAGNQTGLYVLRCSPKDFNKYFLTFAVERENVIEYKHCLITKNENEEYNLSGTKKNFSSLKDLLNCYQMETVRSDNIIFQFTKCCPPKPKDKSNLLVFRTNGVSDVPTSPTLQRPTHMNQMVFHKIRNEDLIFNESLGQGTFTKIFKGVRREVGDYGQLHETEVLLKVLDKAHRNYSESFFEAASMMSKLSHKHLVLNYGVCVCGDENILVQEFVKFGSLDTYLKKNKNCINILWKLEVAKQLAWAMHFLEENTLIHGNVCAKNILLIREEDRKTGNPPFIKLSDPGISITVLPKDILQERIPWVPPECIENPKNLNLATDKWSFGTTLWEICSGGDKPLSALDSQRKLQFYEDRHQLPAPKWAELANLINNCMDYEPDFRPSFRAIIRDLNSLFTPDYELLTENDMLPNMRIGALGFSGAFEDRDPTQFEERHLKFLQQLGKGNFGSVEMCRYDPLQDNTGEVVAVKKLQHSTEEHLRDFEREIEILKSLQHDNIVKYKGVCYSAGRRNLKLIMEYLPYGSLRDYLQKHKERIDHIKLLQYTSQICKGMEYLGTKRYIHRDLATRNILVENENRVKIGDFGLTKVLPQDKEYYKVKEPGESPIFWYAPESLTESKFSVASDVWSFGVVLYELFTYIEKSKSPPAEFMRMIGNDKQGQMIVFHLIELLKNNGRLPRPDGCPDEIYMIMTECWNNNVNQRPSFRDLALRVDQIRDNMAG

With GGYNNYGYGSD [HNRNPH3_Y159_N163S], the SH2 binding enrichment came to 0.808 in data set [1], 0.575 in [2] and 0.951 in data set [3]. For the same sequence, the phosphorylation enrichment is 0.697 in [4]; 0.611 in data set [5]; 0.379 in data set [6]; 0.421 in [7]; 0.467 in data set [8]; 0.406 in data set [9]. In addition, the phosphorylation enrichment in [10] was 0.475; in [11] it was 0.479; in data set [12] it was 0.38; in data set [13] it was 1.48; in data set [14] it was 0.71; in [15], 2.4. The phosphorylation enrichment in data set [16] was 0.608.
For the sequence GHLFACDWISI [BEST1_Y227_Y227C_YF], the SH2 binding enrichment in [1] was found to be 0.945; in data set [2], 0.806; in data set [3] it was 0.749. Further, the phosphorylation enrichment in data set [4] came to 1.01; in data set [5] it was 0.711; in data set [6], 0.45; in [7], 0.487; in data set [8], 0.639; in data set [9], 0.613. For the same sequence, the phosphorylation enrichment stood at 0.469 in data set [10]; 0.396 in data set [11]; 0.386 in data set [12]; 0.408 in data set [13]; 0.937 in [14]; 0.522 in data set [15]. In addition, in data set [16], the phosphorylation enrichment was 0.531.
As for GIVEDYRPRFF [ACVRL1_Y421_P424R_YF], the figures for the SH2 binding enrichment in data set [1], in [2] and in data set [3] were 0.985, 0.832 and 0.468, respectively. Besides, the phosphorylation enrichment is 0.814 in data set [4]; 0.816 in data set [5]; 0.372 in [6]; 0.513 in data set [7]; 0.655 in data set [8]; 0.467 in data set [9]. The phosphorylation enrichment in data set [10] turned out to be 0.427; in data set [11], 0.626; in data set [12] it was 0.459; in data set [13] it was 0.616; in data set [14] it was 0.811; in [15], 0.468. In data set [16], the phosphorylation enrichment was determined as 0.681.
GIVEDYRPTFY [ACVRL1_Y421_P424T]: the values for the SH2 binding enrichment in data set [1], in [2] and in [3] were 0.875, 0.657 and 0.763, respectively. For the same sequence, the phosphorylation enrichment came out at 0.866 in data set [4]; 0.661 in data set [5]; 0.513 in data set [6]; 0.373 in [7]; 0.648 in data set [8]; 0.441 in data set [9]. Further, the phosphorylation enrichment in data set [10] is 0.475; in data set [11] it was 0.404; in data set [12] it was 0.347; in data set [13], 0.561; in data set [14], 0.83; in [15], 0.484. The phosphorylation enrichment in data set [16] was determined as 0.899.
Turning to GIYSGYDDAWD [POLR1C_Y36_N32I], the results for the SH2 binding enrichment in data set [1], in data set [2] and in data set [3] were 0.854, 0.632 and 5.53, respectively. The phosphorylation enrichment in data set [4] is 1.09; in data set [5], 1.05; in data set [6] it was 7.64; in data set [7] it was 1.46; in [8], 0.647; in data set [9], 0.568. Besides, the phosphorylation enrichment turned out to be 5.99 in [10]; 2.25 in [11]; 5.63 in data set [12]; 2.36 in data set [13]; 1.44 in [14]; 2.5 in data set [15]. The phosphorylation enrichment in [16] was 0.835.
GKGGSYSKAEW [HLA-E_Y341]: the SH2 binding enrichment in [1] was determined as 0.949; in [2], 0.512; in data set [3], 0.624. The phosphorylation enrichment in data set [4] is 0.613; in data set [5], 0.567; in data set [6] it was 0.415; in [7], 0.368; in data set [8], 0.378; in data set [9], 0.466. Moreover, the phosphorylation enrichment in data set [10] was 0.416; in data set [11], 0.405; in [12] it was 0.375; in data set [13] it was 0.481; in [14] it was 0.493; in [15], 0.467. For the same sequence, the phosphorylation enrichment in data set [16] was 0.496.
For GLDGSYLLTDS [SH2D1A_Y29_R32T], the SH2 binding enrichment in data set [1] was determined as 0.683; in data set [2], 0.648; in data set [3], 0.505. The phosphorylation enrichment amounted to 0.863 in [4]; 0.697 in [5]; 0.423 in data set [6]; 0.455 in [7]; 0.604 in [8]; 0.483 in data set [9]. In addition, the phosphorylation enrichment in [10] is 0.435; in [11], 0.369; in data set [12], 0.469; in data set [13], 0.491; in data set [14], 0.864; in [15], 0.541. Further, the phosphorylation enrichment in data set [16] came out at 0.551.
As for GLETSYIEDNC [PAH_Y24_Q20L], the values for the SH2 binding enrichment in [1], in [2] and in data set [3] were 0.726, 0.617 and 0.539, respectively. In addition, the phosphorylation enrichment stood at 0.937 in [4]; 0.873 in [5]; 0.525 in [6]; 0.466 in data set [7]; 0.564 in [8]; 0.655 in data set [9]. For the same sequence, the phosphorylation enrichment in data set [10] stood at 0.487; in [11] it was 0.497; in [12], 0.513; in [13], 0.585; in data set [14] it was 1.04; in data set [15], 0.569. Further, the phosphorylation enrichment in [16] stood at 0.744.

Values taken from the supplement of paper PMC10065799, “High-throughput profiling of sequence recognition by tyrosine kinases and SH2 domains using bacterial peptide display” (eLife, 2023).
